First the molecules themselves.
B1: Transitional endoplasmic reticulum ATPase, residues 26 to 106; numbered along this chain, P55072 (parent)
chain: LIVDEAINEDNSVVSLSQPKMDELQLFRGDTVLLKGKKRREAVCIVLSDDTCSDEKIRMNRVVRNNLRVRLGDVISIQPCP

± gives the uncertainty stated by the source.

For 167 variants, abundance fitness results are on record in the Human Domainome abundance scans (Beltran et al. 2025).

Variants of B1 are the subject of this data set. Put plainly: abundance fitness (aPCA) (normalised: wild type 0, dead -1); higher = more abundant; growth selection in yeast, the domain comes from the species named. The note with it: Homo sapiens.
For the variant L26H, the abundance fitness is -0.609 ± 0.3.
For L26S the value was -0.838 ± 0.11; for L26F, -0.285 ± 0.23.
With L26P the figure was -0.859 ± 0.18.
With R70H the figure was -0.152 ± 0.11; with R70F, -0.184 ± 0.1.
On to R70I, for which the abundance fitness is -0.242 ± 0.19.
With R70P the figure was -0.327 ± 0.094; with R70D, -0.091 ± 0.13; with R70T, 0.017 ± 0.085.
For R70M the value was -0.077 ± 0.092; for D10V, -0.14 ± 0.041; for D10S, -0.14 ± 0.061.
For D10C the value was -0.165 ± 0.099; for D10T, -0.01 ± 0.068.
In the case of D10M, the abundance fitness was -0.054 ± 0.058.
With S12K the figure was -0.035 ± 0.065; with S12C, -0.056 ± 0.07.
With S12L the figure was -0.019 ± 0.053.
With D49C the figure was -0.468 ± 0.4; with D49W, -0.923 ± 0.14.
In the case of D49A, the abundance fitness is -0.139 ± 0.07.
With D49H, the abundance fitness was -0.251 ± 0.19.
With D49N the figure was -0.254 ± 0.15.
For V13N the value was -0.236 ± 0.12; for R40P, -0.122 ± 0.11; for R40Y, 0.073 ± 0.17.
For R40G the value was 0.107 ± 0.055; for R40Q, -0.039 ± 0.15.
Regarding R40D, the abundance fitness is -0.085 ± 0.099.
For C44N, the abundance fitness is -0.172 ± 0.25.
For C44F the value was -0.074 ± 0.091.
As to K37S, the abundance fitness turned out to be 0.03 ± 0.042.
With K37P the figure was -0.118 ± 0.097.
In the case of I57L, the abundance fitness is -0.224 ± 0.066.
Take I57V: the abundance fitness is -0.019 ± 0.058.
Regarding I57K, the abundance fitness was -0.931 ± 0.35.
With V43T the figure was -0.068 ± 0.076; with V43I, -0.038 ± 0.097; with V43W, 0.03 ± 0.14.
For D50E the value was -0.023 ± 0.081; for D50H, -0.021 ± 0.16.
As for D50T, the abundance fitness was -0.037 ± 0.087.
In the case of I2C, the abundance fitness is -0.162 ± 0.078.
I2D: the abundance fitness is -0.806 ± 0.17.
With I2P the figure was -0.891 ± 0.27.
In the case of I2L, the abundance fitness was -0.115 ± 0.055.
For I2Y the value was -0.418 ± 0.22; for I2E, -0.167 ± 0.11; for I2F, -0.103 ± 0.051.
With V74W the figure was -0.087 ± 0.091; with V74E, 0.051 ± 0.11.
Regarding V74S, the abundance fitness is -0.048 ± 0.064.
Turning to V74F, the abundance fitness amounted to 0.042 ± 0.078.
With V74P the figure was 0.009 ± 0.095; with V74N, 0.034 ± 0.2; with V14C, -0.11 ± 0.069.
V14S: the abundance fitness is -0.801 ± 0.068.
With V14P the figure was -0.977 ± 0.19; with V14K, -0.856 ± 0.32; with V14R, -0.884 ± 0.083.
In the case of N8K, the abundance fitness was -0.011 ± 0.07.
For the variant N8Q, the abundance fitness was -0.025 ± 0.089.
For I45S the value was -0.028 ± 0.059; for I45H, -0.088 ± 0.084.
As to I45G, the abundance fitness is -0.06 ± 0.036.
For I45E the value was 0.035 ± 0.1; for I45K, -0.002 ± 0.13.
For I45A the value was -0.006 ± 0.057; for I45N, 0.036 ± 0.13; for L71E, 0.07 ± 0.069.
For L71R the value was -0.102 ± 0.055; for L71C, -0.112 ± 0.11.
For the variant L71G, the abundance fitness worked out at 0.009 ± 0.053.
With L71F the figure was -0.184 ± 0.25; with L71V, -0.048 ± 0.058; with G29T, -0.391 ± 0.092.
For G29A the value was -0.203 ± 0.06; for G29R, -0.197 ± 0.056.
With G29C the figure was -0.259 ± 0.1; with G29Q, -0.104 ± 0.049; with G29N, -0.03 ± 0.11.
With G29F, the abundance fitness was -0.157 ± 0.098.
For S15R the value was -0.001 ± 0.038; for S15D, -0.674 ± 0.1; for S15W, -0.091 ± 0.092.
Consider S15I, for which the abundance fitness turned out to be 0.002 ± 0.077.
As to S15V, the abundance fitness amounted to 0.07 ± 0.037.
With S15M the figure was -0.058 ± 0.079.
For A42K the value was 0.041 ± 0.13; for A42F, 0.037 ± 0.095.
With A42I the figure was -0.258 ± 0.16.
Turning to A42D, the abundance fitness was found to be 0.028 ± 0.12.
L16F: the abundance fitness is -0.267 ± 0.085.
With L16N, the abundance fitness was -0.766 ± 0.29.
For L16T the value was -0.793 ± 0.14; for L16C, -0.083 ± 0.087.
In the case of L16A, the abundance fitness was -0.65 ± 0.062.
Consider G72K, for which the abundance fitness was -0.317 ± 0.097.
For G72N the value was -0.043 ± 0.28; for G72W, -0.363 ± 0.073.
For G72S the value was -0.278 ± 0.082.
On to G72H, for which the abundance fitness is -0.257 ± 0.16.
Take S48I: the abundance fitness is 0.031 ± 0.15.
Consider S48W, for which the abundance fitness was -0.357 ± 0.18.
For S48K the value was -0.004 ± 0.11.
With S48T, the abundance fitness is -0.005 ± 0.074.
On to S48F, for which the abundance fitness was -0.342 ± 0.17.
For S48C the value was 0.07 ± 0.068.
For L24N the value was -0.47 ± 0.19; for L24D, -0.759 ± 0.079; for L24K, -0.98 ± 0.2.
Take L24M: the abundance fitness was -0.249 ± 0.076.
With L33C the figure was 0.055 ± 0.094; with L33P, -0.955 ± 0.13; with L33G, -0.344 ± 0.038.
With L33K the figure was -0.045 ± 0.1; with L33D, -0.572 ± 0.064.
For the variant L33V, the abundance fitness stood at 0.042 ± 0.061.
With V46N the figure was -0.749 ± 0.21; with V46W, -0.74 ± 0.19; with V46E, -0.649 ± 0.1.
As for V46D, the abundance fitness is -0.804 ± 0.17.
For the variant K20C, the abundance fitness is -0.096 ± 0.11.
For K20V, the abundance fitness turned out to be 0.004 ± 0.046.
With K20W the figure was -0.391 ± 0.14.
With K20S the figure was -0.162 ± 0.056.
Consider D22G, for which the abundance fitness is -0.101 ± 0.046.
For D22T the value was -0.037 ± 0.063; for D22M, -0.06 ± 0.066.
Consider R39L, for which the abundance fitness is -0.054 ± 0.061.
For Q25E the value was -0.156 ± 0.081.
In the case of Q25V, the abundance fitness is -0.202 ± 0.052.
For the variant Q25T, the abundance fitness is -0.102 ± 0.062.
Take Q25K: the abundance fitness was -0.013 ± 0.076.
On to L1A, for which the abundance fitness was -0.126 ± 0.11.
For L1V the value was -0.003 ± 0.1; for L1M, -0.046 ± 0.16.
On to Q78M, for which the abundance fitness is -0.089 ± 0.077.
In the case of Q78D, the abundance fitness was determined as 0.084 ± 0.087.
For Q78H the value was -0.025 ± 0.12; for C80Q, 0.104 ± 0.3; for C80L, 0.022 ± 0.073.
For C80D the value was -0.064 ± 0.072.
For C80W, the abundance fitness was -0.29 ± 0.11.
Consider C80V, for which the abundance fitness is -0.06 ± 0.045.
With P81D, the abundance fitness worked out at 0.058 ± 0.12.
For the variant P81H, the abundance fitness is -0.261 ± 0.1.
With P81R the figure was -0.221 ± 0.14.
As for R58M, the abundance fitness was -0.068 ± 0.095.
Take R58E: the abundance fitness was -0.376 ± 0.098.
R58L: the abundance fitness was -0.037 ± 0.072.
Consider R58G, for which the abundance fitness is -0.156 ± 0.056.
For D4C the value was 0.096 ± 0.073; for D4N, -0.332 ± 0.16; for D4W, -0.091 ± 0.08.
With D4M the figure was -0.041 ± 0.077.
With D4A the figure was -0.009 ± 0.055.
Take D4Q: the abundance fitness was -0.179 ± 0.071.
With D4G the figure was -0.085 ± 0.043; with D4R, -0.627 ± 0.062.
As for L34S, the abundance fitness was -0.757 ± 0.12.
For the variant L34G, the abundance fitness was -0.46 ± 0.12.
Consider L34M, for which the abundance fitness is -0.073 ± 0.11.
For V69S the value was -0.255 ± 0.072; for V69P, -1.03 ± 0.3.
With V69C the figure was 0.067 ± 0.072.
